# Experimental data reported in publication PMC9283540.
# Experiments:
# [1] = molecular target: TipsytheTRex immunity repressor (WT of study stock) (Mycobacteriophage TipsytheTRex (cluster A)) (UniProt A0A2D1GKF7); experiment: EMSA; details: 0.25 uM labeled DNA; EMSA: 20 mM Tris pH 7.0, 25 mM NaCl, 1 mM DTT, 100 ug/mL BSA, 5% glycerol, 0.25 uM FAM-DNA, room temperature 30 min, 5% native gel in 1x TAE
# [2] = molecular target: TipsytheTRex repressor D104A (Mycobacteriophage TipsytheTRex (cluster A)) (UniProt A0A2D1GKF7); experiment: EMSA; details: 0.25 uM labeled DNA; ~3.5-fold weaker than WT; EMSA: 20 mM Tris pH 7.0, 25 mM NaCl, 1 mM DTT, 100 ug/mL BSA, 5% glycerol, 0.25 uM FAM-DNA, room temperature 30 min, 5% native gel in 1x TAE
sequence,measurement,setting,value
ACGGCCCGCTTGACAGCCACCGAAACATCC (double strand) [30-bp optimal],Kd,[1],59 nM
same,Kd,[2],207 nM
